Data: CN114907482A

Target: 人Claudin18.2 (human) (UniProt P56856)
Assay: cell-based or functional assay

Row | Binder | 活细胞比率 (CDC, 20%人血浆, 30min, 293T-hClaudin18.2细胞; 无抗体对照81.34%) [%]
1 | 鼠单抗1B10 (antibody, V domains shown) VH: QVQLKESGPGLVAPSQSLSITCTVSGFSLTSYVINWVRQPPGKGLEWLGVIWTGGGTNYNSALKSRLSISKDTSKSQVFLKMNSLQTDDTARYYCARGAYYGNAMDYWGQGTSVTVSS VL: DIVMTQSPSSLTVTAGEKVTMSCKSSQSLLNSGNQKNYLTWYQQKPGQPPKLLIYWAATRESGVPDRFTGSGSGTDFTLTISSVQAEDLAVYYCQNDYSYPFTFGSGTKLEIK | 34
2 | 鼠单抗1A6 (antibody, V domains shown) VH: QVQLQQPGAELVKPGASVKLSCKASGYTFTSYWMQWVKQRPGQGLEWIGMTHPNSGGTNYNEKFKSKATLTVDKSSSTAYMQLSSLTSEDSAVYYCARLGRGNAMDYWGQGTSVTVSS VL: DIVMTQSPSSLTVTAGEKVTMSCKSSQSLLNSGNQKNYLTWYQQKPGQPPKLLIYWASTRKSGVPDRFTGSGSGTDFTLTISSVQAEDLTIYYCQNDYSYPFTFGSGTKLEIK | 3.94
